Source: patent US7138497 (CHIRON, dated 2006)

B1: 520C9 sFv single-chain binding protein (scFv)
scFv: EIQLVQSGPELKKPGETVKISCKASGYTFANYGMNWMKQAPGKGLKWMGWINTYTGQSTYADDFKERFAFSLETSATTAHLQINNLRNEDSATYFCARRFGFAYWGQGTLVSVSASISSSSGSSSSGSSSSGSDIQMTQSPSSLSASLGERVSLTCRASQDIGNSLTWLQQEPDGTIKRLIYATSSLDSGVPKRFSGSRSGSDYSLTISSLESEDFVVYYCLQYAIFPYTFGGGTNLEIKRAD
notes: also called biosynthetic 520C9 sFv
B2: 741F8/26-10 (sFv')2 heterodimer (bispecific antibody)
scFv 1: MAEIQLVQSGPELKKPGETVKISCKASGYTFTNYGMNWVKQAPGKGLKWMGWINTNTGEPTYAEEFKGRFAFSLETSASTAYLQINNLKNEDTATYFCGRQFITYGGFANWGQGTLVTVSASSSSGSSSSGSSSSDIVMTQSPKFMSTSVGDRVSISCKASQDVSTAVAWYQQKPGQSPKLLIYWTSTRHTGVPDRFTGSGSGTDYTLTISSVQAEDLALHYCQQHYRVPYTFGGGTKLEIKRADGGGGC
scFv 2: MEVQLQQSGPELVKPGASVRMSCKSSGYIFTDFYMNWVRQSHGKSLDYIGYISPYSGVTGYNQKFKGKATLTVDKSSSTAYMELRSLTSEDSAVYYCAGSSGNKWAMDYWGHGASVTVSSSGSSSSGSSSSGSDVVMTQTPLSLPVSLGDQASISCRSSQSLVHSNGNTYLNWYLQKAGQSPKLLIYKVSNRFSGVPDRFSGSGSGTDFTLKISRVEAEDLGIYFCSQTTHVPPTFGGGTKLEIKRSGGGGC
modifications: C-terminal cysteine of the (Gly)4-Cys tail disulfide linked to the other chain
notes: Made by reacting 26-10 sFv'-TNB with reduced 741F8 sFv'; also called 741F8/26-10 heterodimer
B3: Fab fragment of the 520C9 monoclonal antibody (Fab, V domains shown)
VH: EIQLVQSGPELKKPGETVKISCKASGYTFANYGMNWMKQAPGKGLKWMGWINTYTGQSTYADDFKERFAFSLETSATTAHLQINNLRNEDSATYFCARRFGFAYWGQGTLVSVSA
VL: DIQMTQSPSSLSASLGERVSLTCRASQDIGNSLTWLQQEPDGTIKRLIYATSSLDSGVPKRFSGSRSGSDYSLTISSLESEDFVVYYCLQYAIFPYTFGGGTNLEIK
notes: Fab of the parental murine monoclonal antibody 520C9; The limits of VH (1-115) are derived from the printed linker position; also called 520C9 Fab; parental 520C9 Fab fragment

Experiments:
[1] = biological target: T1, c-erbB-2 extracellular domain (ECD) with His6 peptide, attached to agarose beads (UniProt P04626 23-652, limits assumed); experiment: affinity chromatography on c-erbB-2 ECD-agarose
T1 construct: extracellular domain; Expressed in CHO cells, purified by IMAC, coupled to agarose beads
Source text: The refolded 26-10 sFv' polypeptide chains were purified by ouabain-Sepharose affinity chromatography, as described for the 26-10 sFv constructs (Huston, et. al., 1988, *Proc. Natl Acad. Sci. USA* 85; 5879–5883 and Tai, et al., 1990, *Biochem.* 29, 8024–[…], both of which are hereby incorporated by reference). The refolded 520C9 sFv polypeptide chain was similarly purified using a c-erbB-2-agarose affinity column. […] The buffer was then exchanged by dialysis. The c-erbB-2 affinity column preferably was prepared by linking the extracellular domain of c-erbB-2 onto agarose beads.

[2] = biological target: T2, c-erbB-2 (extract of SK-Br-3 breast cancer cells coated on the plate) (UniProt P04626 23-1255); experiment: competition ELISA, SK-Br-3 extract on plate, 520C9-HRP probe as competitor
T2 construct: Crude detergent extract of the cells, not purified protein; also called c-erbB-2 antigen
Description: In order to prepare c-erbB-2, SK-Br-3 breast cancer cells (Ring et al., 1989, Cancer Res. 49: 3070–3080), were harvested and resuspended in 10 mM NaCl, 0.5% Nonidet-P40, pH 8. Insoluble debris was removed by centrifugation and the extract filtered through 0.45 Millex HA and 0.2 Millex GV filters. 40µl of the extract was added to each well of a 96 well plate and incubated overnight at 37° C. The plates then were washed with PBS and non-specific binding sites blocked following the addition of PBS containing 1% skim milk by incubation for one hour at room temperature. The sFv and 520C9 Fab samples, diluted in PBS, were added to the wells and incubated for 30 mins at room temperature. A control containing only dilution buffer was also included.
In order to quantitate the reaction, 20µl of a 520C9-horseradish peroxidase (HRP) probe (Zymed Labs., South San Francisco, Calif.), diluted to 14 µl/ml in PBS containing 1% skim milk, was added to each well and incubated for one hour at room temperature. The plate was then washed four times with PBS, the peroxidase substrate added and incubated for 30 minutes at room temperature. The reaction was quenched with H_2SO_4 and the […] values measured.

[3] = biological target: T1, c-erbB-2 extracellular domain (ECD) …; experiment: affinity chromatography on c-erbB-2 ECD-agarose, eluted with 5M LiCl
Description: The (sFv')_2 heterodimers can be separated by a two step affinity chromatography procedure taking advantage of the bivalent nature of the dimer. For instance, during the purification of the 741F8/26-10 heterodimer the mixture initially was loaded onto an ouabain-Sepharose column, washed with a PBS, 1 M NaCl buffer, to remove any non-specifically adsorbed material, and rewashed with PBS to reduce the salt concentration. The reactive 26-10 sFv' species bound to the resin were eluted with 20 mM ouabain in PBS and the eluate dialyzed against PBS to remove the cardiac glycoside. The 741F8/26-10 heterodimers were then repurified on a c-erbB-2-agarose affinity column taking advantage of the ECD binding site in the heterodimer. […] Prior to use, the buffer was exchanged with PBS by dialysis.

Row | Binder | binding result [1] | binding result [2] | binding result [3]
1 | B1 | binds | binds | –
2 | B2 | – | – | binds
3 | B3 | – | binds | –
